In US20060104978:

Legend:
[1] = target: T1, CUBc-myc (CUB domain of PDGF-C, residues 1 to 165, with a human c-myc tag), Q9NRA1
T1 chain: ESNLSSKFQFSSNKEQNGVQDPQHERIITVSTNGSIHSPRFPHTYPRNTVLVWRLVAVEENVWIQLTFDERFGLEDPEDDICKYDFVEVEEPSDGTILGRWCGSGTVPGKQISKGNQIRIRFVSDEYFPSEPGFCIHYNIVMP

[2] = target: T2, chimeric PDCUBPC (CUB region of PDGF-D, hinge/core region of PDGF-C), Q9GZP0
T2 chain: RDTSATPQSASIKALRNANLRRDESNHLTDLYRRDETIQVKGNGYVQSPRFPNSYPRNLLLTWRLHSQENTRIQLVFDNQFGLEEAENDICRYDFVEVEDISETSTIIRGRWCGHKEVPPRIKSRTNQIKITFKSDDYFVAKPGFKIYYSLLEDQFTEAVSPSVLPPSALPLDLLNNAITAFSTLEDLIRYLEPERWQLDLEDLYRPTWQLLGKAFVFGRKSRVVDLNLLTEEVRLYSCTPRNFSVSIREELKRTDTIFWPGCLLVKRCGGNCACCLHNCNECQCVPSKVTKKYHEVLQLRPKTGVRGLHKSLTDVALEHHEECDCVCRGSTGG

[3] = target: PDGF-CC deletion mutant ΔN190, Q9NRA1
[4] = target: full-length PDGF-D expressed in transfected COS-1 cells (latent PDGF-DD), Q9GZP0
[5] = target: PDGF-CC deletion mutant ΔN210, Q9NRA1
[6] = target: PDGF-CC deletion mutant ΔN170, Q9NRA1
[7] = target: full-length PDGF-C expressed in transfected COS-1 cells (latent PDGF-CC), Q9NRA1
[8] = target: PDGF-CC deletion mutant ΔN150, Q9NRA1
[9] = target: PDGF-CC deletion mutant ΔN230, Q9NRA1
[10] = target: cleavage site mutant of mouse PDGF-C (-K-K-S-K- replaced by four alanines), Q8CI19
[11] = target: recombinant His6-tagged latent (full-length) PDGF-DD, Q9GZP0
[12] = target: recombinant His6-tagged latent (full-length) human PDGF-CC, Q9NRA1
[13] = target: T3, endogenous latent PDGF-CC secreted by primary mouse fibroblasts, Q8CI19
T3 chain: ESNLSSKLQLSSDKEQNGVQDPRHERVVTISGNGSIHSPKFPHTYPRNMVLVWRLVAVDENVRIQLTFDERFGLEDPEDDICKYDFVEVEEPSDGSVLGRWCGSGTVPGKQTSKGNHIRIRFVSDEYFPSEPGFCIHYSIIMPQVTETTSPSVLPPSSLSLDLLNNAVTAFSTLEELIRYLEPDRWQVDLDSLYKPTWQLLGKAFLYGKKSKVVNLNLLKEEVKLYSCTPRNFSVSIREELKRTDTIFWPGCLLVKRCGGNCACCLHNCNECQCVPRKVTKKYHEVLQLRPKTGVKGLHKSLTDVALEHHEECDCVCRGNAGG

B1: full-length human tPA expressed in transfected COS-1 cells (pSG5) (protein)
chain: SYQVICRDEKTQMIYQQHQSWLRPVLRSNRVEYCWCNSGRAQCHSVPVKSCSEPRCFNGGTCQQALYFSDFVCQCPEGFAGKCCEIDTRATCYEDQGISYRGTWSTAESGAECTNWNSSALAQKPYSGRRPDAIRLGLGNHNYCRNPDRDSKPWCYVFKAGKYSSEFCSTPACSEGNSDCYFGNGSAYRGTHSLTESGASCLPWNSMILIGKVYTAQNPSAQALGLGKHNYCRNPDGDAKPWCHVLKNRRLTWEYCDVPSCSTCGLRQYSQPQFRIKGGLFADIASHPWQAAIFAKHRRSPGERFLCGGILISSCWILSAAHCFQERFPPHHLTVILGRTYRVVPGEEEQKFEVEKYIVHKEFDDDTYDNDIALLQLKSDSSRCAQESSVVRTVCLPPADLQLPDWTECELSGYGKHEALSPFYSERLKEAHVRLYPSSRCTSQHLLNRTVTDNMLCAGDTRSGGPQANLHDACQGDSGGPLVCLNDGRMTLVGIISWGLGCGQKDVPGVYTKVTNYLDWIRDNMRP
[1]
  cleavage of full-length PDGF-CC by tPA in the cotransfection assay (immunoblot): the CUB domain efficiently competed for the interaction and processing of latent PDGF-CC by tPA
[2]
  proteolytic cleavage in the cotransfection assay (immunoblot): neither chimeric PDCUBPC, nor the truncation mutants lacking the CUB domain, were efficiently cleaved
[3]
  proteolytic cleavage in the cotransfection assay (immunoblot): neither chimeric PDCUBPC, nor the truncation mutants lacking the CUB domain, were efficiently cleaved
[4]
  proteolytic cleavage in the cotransfection assay (SDS-PAGE, immunoblot): neither of the two enzymes was able to cleave and activate latent PDGF-DD
[5]
  proteolytic cleavage in the cotransfection assay (immunoblot): neither chimeric PDCUBPC, nor the truncation mutants lacking the CUB domain, were efficiently cleaved
[6]
  proteolytic cleavage in the cotransfection assay (immunoblot): neither chimeric PDCUBPC, nor the truncation mutants lacking the CUB domain, were efficiently cleaved
[7]
  proteolytic cleavage in the cotransfection assay (SDS-PAGE, immunoblot): tPA released the growth factor domain of latent PDGFCC, and the fragment migrated as a 22 kDa species under reducing conditions
[8]
  proteolytic cleavage in the cotransfection assay (immunoblot): neither chimeric PDCUBPC, nor the truncation mutants lacking the CUB domain, were efficiently cleaved
[9]
  proteolytic cleavage in the cotransfection assay (immunoblot): neither chimeric PDCUBPC, nor the truncation mutants lacking the CUB domain, were efficiently cleaved
[10]
  proteolytic cleavage in the cotransfection assay (immunoblot): the mutant was resistant to tPA-mediated cleavage

B2: tPA purified from human melanoma cells (T7776, Sigma) (protein)
chain: SYQVICRDEKTQMIYQQHQSWLRPVLRSNRVEYCWCNSGRAQCHSVPVKSCSEPRCFNGGTCQQALYFSDFVCQCPEGFAGKCCEIDTRATCYEDQGISYRGTWSTAESGAECTNWNSSALAQKPYSGRRPDAIRLGLGNHNYCRNPDRDSKPWCYVFKAGKYSSEFCSTPACSEGNSDCYFGNGSAYRGTHSLTESGASCLPWNSMILIGKVYTAQNPSAQALGLGKHNYCRNPDGDAKPWCHVLKNRRLTWEYCDVPSCSTCGLRQYSQPQFRIKGGLFADIASHPWQAAIFAKHRRSPGERFLCGGILISSCWILSAAHCFQERFPPHHLTVILGRTYRVVPGEEEQKFEVEKYIVHKEFDDDTYDNDIALLQLKSDSSRCAQESSVVRTVCLPPADLQLPDWTECELSGYGKHEALSPFYSERLKEAHVRLYPSSRCTSQHLLNRTVTDNMLCAGDTRSGGPQANLHDACQGDSGGPLVCLNDGRMTLVGIISWGLGCGQKDVPGVYTKVTNYLDWIRDNMRP
[11]
  in vitro cleavage with purified tPA (SDS-PAGE, immunoblot): PDGF-CC, but not PDGF-DD, is a substrate for tPA
[12]
  in vitro cleavage with purified tPA (SDS-PAGE, immunoblot): PDGF-CC, but not PDGF-DD, is a substrate for tPA

B3: human neurotrypsin (NT) expressed in transfected COS-1 cells (pSG5) (protein)
chain: FDSVLNDSLHHSHRHSPPAGPHYPYYLPTQQRPPRTRPPPPLPRFPRPPRALPAQRPHALQAGHTPRPHPWGCPAGEPWVSVTDFGAPCLRWAEVPPFLERSPPASWAQLRGQRHNFCRSPDGAGRPWCFYGDARGKVDWGYCDCRHGSVRLRGGKNEFEGTVEVYASGVWGTVCSSHWDDSDASVICHQLQLGGKGIAKQTPFSGLGLIPIYWSNVRCRGDEENILLCEKDIWQGGVCPQKMAAAVTCSFSHGPTFPIIRLAGGSSVHEGRVELYHAGQWGTVCDDQWDDADAEVICRQLGLSGIAKAWHQAYFGEGSGPVMLDEVRCTGNELSIEQCPKSSWGEHNCGHKEDAGVSCTPLTDGVIRLAGGKGSHEGRLEVYYRGQWGTVCDDGWTELNTYVVCRQLGFKYGKQASANHFEESTGPIWLDDVSCSGKETRFLQCSRRQWGRHDCSHREDVSIACYPGGEGHRLSLGFPVRLMDGENKKEGRVEVFINGQWGTICDDGWTDKDAAVICRQLGYKGPARARTMAYFGEGKGPIHVDNVKCTGNERSLADCIKQDIGRHNCRHSEDAGVICDYFGKKASGNSNKESLSSVCGLRLLHRRQKRIIGGKNSLRGGWPWQVSLRLKSSHGDGRLLCGATLLSSCWVLTAAHCFKRYGNSTRSYAVRVGDYHTLVPEEFEEEIGVQQIVIHREYRPDRSDYDIALVRLQGPEEQCARFSSHVLPACLPLWRERPQKTASNCYITGWGDTGRAYSRTLQQAAIPLLPKRFCEERYKGRFTGRMLCAGNLHEHKRVDSCQGDSGGPLMCERPGESWVVYGVTSWGYGCGVKDSPGVYTKVSAFVPWIKSVTKL
[4]
  proteolytic cleavage in the cotransfection assay (SDS-PAGE, immunoblot): neither of the two enzymes was able to cleave and activate latent PDGF-DD
[7]
  proteolytic cleavage in the cotransfection assay (SDS-PAGE, immunoblot): neurotrypsin (NT) lacked proteolytic activity toward latent PDGF-CC

B4: endogenous tPA of primary mouse fibroblasts (protein)
chain: SYRATCRDEPTQTTYQQHQSWLRPMLRSSRVEYCRCNSGLVQCHSVPVRSCSEPRCFNGGTCQQALYFSDFVCQCPDGFVGKRCDIDTRATCFEEQGITYRGTWSTAESGAECINWNSSVLSLKPYNARRPNAIKLGLGNHNYCRNPDRDLKPWCYVFKAGKYTTEFCSTPACPKGKSEDCYVGKGVTYRGTHSLTTSQASCLPWNSIVLMGKSYTAWRTNSQALGLGRHNYCRNPDGDARPWCHVMKDRKLTWEYCDMSPCSTCGLRQYKRPQFRIKGGLYTDITSHPWQAAIFVKNKRSPGERFLCGGVLISSCWVLSAAHCFLERFPPNHLKVVLGRTYRVVPGEEEQTFEIEKYIVHEEFDDDTYDNDIALLQLRSQSKQCAQESSSVGTACLPDPNLQLPDWTECELSGYGKHEASSPFFSDRLKEAHVRLYPSSRCTSQHLFNKTVTNNMLCAGDTRSGGNQDLHDACQGDSGGPLVCMINKQMTLTGIISWGLGCGQKDVPGVYTKVTNYLDWIHDNMKQ
[13]
  processing of latent PDGF-CC in medium of tPA-deficient against wild-type fibroblasts (immunoblot): the generation of double species migrating as 22-25 kDa was reduced to less than 10%
